{"source": "paper PMC9754288", "molecular_target": "SAP11_(CaPm) from 'Ca. P. mali' strain STAA, split-YFP fusion for BiFC ('Candidatus Phytoplasma mali' strain STAA)", "experiment": "split reporter (BiFC, NanoBiT); BiFC with split YFP from pBiFC-2in1 vectors in Nicotiana benthamiana mesophyll protoplasts; confocal microscopy 16 h after transformation; RFP marks transformed protoplasts"}
{"substance": "MdTCP16, split-YFP fusion for BiFC (natural protein)", "values": [{"measurement": "percent of transformed protoplasts with a YFP signal", "result": "< 92.5", "unit": "%"}]}
